Test results as given in publication doi:10.1101/2021.06.28.21259671.

Key:
[1] = target: chimeric secretory component (CSC) of the polymeric immunoglobulin receptor (rabbit/human chimera); test: lateral flow assay
[2] = target: chimeric secretory component (CSC) of the polymeric immunoglobulin receptor (rabbit/human chimera); test: SEC

| Substance | limit of detection [1] [µg/mL] | stoichiometry N [2] |
| --- | --- | --- |
| CB6-dIgA1 (dimeric IgA1 form of the SARS-CoV-2 specific monoclonal antibody CB6, with J chain) | 0.123 |  |
| CB6-dIgA2 (dimeric IgA2 form of the SARS-CoV-2 specific monoclonal antibody CB6, with J chain) | 0.128 |  |
| chimeric secretory component (CSC) of the polymeric immunoglobulin receptor |  | 2 |
